According to PMC7094590:

Target: wild-type HCoV-229E Nsp9 (non-structural protein 9 of human coronavirus 229E) (human coronavirus 229E)
Assay: crystal structure

wild-type HCoV-229E Nsp9 (non-structural protein 9 of human coronavirus 229E) (natural protein)
stoichiometry N: 2
